In PMC10786891, “Massively parallel profiling of RNA-targeting CRISPR-Cas13d”:

T1: EsCas13d, nuclease-dead (Eubacterium siraeum, UniProt B0MS50, R295A;H300A;R849A;H854A)
T1 sequence: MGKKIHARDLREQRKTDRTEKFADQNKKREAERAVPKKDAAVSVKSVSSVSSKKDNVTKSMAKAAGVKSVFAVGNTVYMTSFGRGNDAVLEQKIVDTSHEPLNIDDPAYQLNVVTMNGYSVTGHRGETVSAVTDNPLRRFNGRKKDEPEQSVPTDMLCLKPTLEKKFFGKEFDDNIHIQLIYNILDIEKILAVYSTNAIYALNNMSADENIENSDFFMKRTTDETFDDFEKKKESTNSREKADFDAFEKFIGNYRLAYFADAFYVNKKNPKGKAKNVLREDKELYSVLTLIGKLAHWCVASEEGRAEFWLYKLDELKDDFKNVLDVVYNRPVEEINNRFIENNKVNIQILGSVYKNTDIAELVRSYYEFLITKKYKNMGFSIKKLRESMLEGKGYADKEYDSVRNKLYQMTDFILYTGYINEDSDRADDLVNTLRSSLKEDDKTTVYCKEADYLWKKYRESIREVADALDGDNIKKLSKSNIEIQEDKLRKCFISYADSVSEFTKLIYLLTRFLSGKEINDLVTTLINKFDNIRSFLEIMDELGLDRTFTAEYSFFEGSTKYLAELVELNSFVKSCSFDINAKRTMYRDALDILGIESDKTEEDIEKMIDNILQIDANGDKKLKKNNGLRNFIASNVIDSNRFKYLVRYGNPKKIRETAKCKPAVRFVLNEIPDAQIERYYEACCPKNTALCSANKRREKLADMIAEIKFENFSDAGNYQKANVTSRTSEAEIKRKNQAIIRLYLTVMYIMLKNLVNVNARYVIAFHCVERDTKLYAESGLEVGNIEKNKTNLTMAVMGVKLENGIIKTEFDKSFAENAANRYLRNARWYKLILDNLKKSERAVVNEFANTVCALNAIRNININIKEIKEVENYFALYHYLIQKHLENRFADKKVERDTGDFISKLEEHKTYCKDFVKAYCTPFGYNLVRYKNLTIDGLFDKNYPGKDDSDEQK


What follows are binders tested against T1, EsCas13d, nuclease-dead (assay: crRNA (strand 1, pre-loaded); Mg2+; 40 mM Tris-HCl pH 7.5, 150 mM NaCl, 6 mM MgCl2, 1 mM DTT, 0.1% Tween-20, 0.2 mg/ml BSA; 25 C; 10 min per concentration, then washed). Conditions: tags: His6-TwinStrep-SUMO cleaved; N-terminal SNAP kept (SNAP-Surface 488); label: 3' end held by stalled T7 RNA polymerase.

Row | Binder | Kd [nM]
1 | target 3 C1A (mixed) RNA 1: CACCCGUGCAAAAUUGCAGGGGUCUAAAACGACCUGAAUAUUUCAGAUCAAA RNA 2: GGGAAUGGAUCCACAUCUACGAAUUCGUUUUUGAUCUGAAAUAUUCAGGUAUGCAGAUCGGAAGAGCACACGU | 20 ± 2.55
2 | target 3 insA 3' of 4,insU 3' of 4 (mixed) RNA 1: CACCCGUGCAAAAUUGCAGGGGUCUAAAACGACCUGAAUAUUUCAGAUCAAA RNA 2: GGGAAUGGAUCCACAUCUACGAAUUCGUUUUUGAUCUGAAAUAUUCAGAUGUCUGCAGAUCGGAAGAGCACACGU | 44 ± 16
3 | target 3 insA 3' of 20,insC 3' of 20 (mixed) RNA 1: CACCCGUGCAAAAUUGCAGGGGUCUAAAACGACCUGAAUAUUUCAGAUCAAA RNA 2: GGGAAUGGAUCCACAUCUACGAAUUCGUUUUUACGAUCUGAAAUAUUCAGGUCUGCAGAUCGGAAGAGCACACGU | ~110
4 | target 3 insG 3' of 7,insU 3' of 6 (mixed) RNA 1: CACCCGUGCAAAAUUGCAGGGGUCUAAAACGACCUGAAUAUUUCAGAUCAAA RNA 2: GGGAAUGGAUCCACAUCUACGAAUUCGUUUUUGAUCUGAAAUAUUGCUAGGUCUGCAGAUCGGAAGAGCACACGU | 20.1 ± 1.9
5 | target 3 C1G,U10A (mixed) RNA 1: CACCCGUGCAAAAUUGCAGGGGUCUAAAACGACCUGAAUAUUUCAGAUCAAA RNA 2: GGGAAUGGAUCCACAUCUACGAAUUCGUUUUUGAUCUGAAAAAUUCAGGUGUGCAGAUCGGAAGAGCACACGU | 43 ± 14
6 | target 3 insA 3' of 22 (mixed) RNA 1: CACCCGUGCAAAAUUGCAGGGGUCUAAAACGACCUGAAUAUUUCAGAUCAAA RNA 2: GGGAAUGGAUCCACAUCUACGAAUUCGUUUAUUGAUCUGAAAUAUUCAGGUCUGCAGAUCGGAAGAGCACACGU | 20.6 ± 3.4
7 | target 3 insA 3' of 6,insU 3' of 3 (mixed) RNA 1: CACCCGUGCAAAAUUGCAGGGGUCUAAAACGACCUGAAUAUUUCAGAUCAAA RNA 2: GGGAAUGGAUCCACAUCUACGAAUUCGUUUUUGAUCUGAAAUAUUCAAGGUUCUGCAGAUCGGAAGAGCACACGU | 5.25 ± 0.5
8 | target 3 A9G,U22A (mixed) RNA 1: CACCCGUGCAAAAUUGCAGGGGUCUAAAACGACCUGAAUAUUUCAGAUCAAA RNA 2: GGGAAUGGAUCCACAUCUACGAAUUCGUUAUUGAUCUGAAAUGUUCAGGUCUGCAGAUCGGAAGAGCACACGU | 27.6 ± 3.15
9 | target 3 insC 3' of 5,insA 3' of 1 (mixed) RNA 1: CACCCGUGCAAAAUUGCAGGGGUCUAAAACGACCUGAAUAUUUCAGAUCAAA RNA 2: GGGAAUGGAUCCACAUCUACGAAUUCGUUUUUGAUCUGAAAUAUUCACGGUCAUGCAGAUCGGAAGAGCACACGU | 23.1 ± 4.05
10 | target 3 U2G,U7G (mixed) RNA 1: CACCCGUGCAAAAUUGCAGGGGUCUAAAACGACCUGAAUAUUUCAGAUCAAA RNA 2: GGGAAUGGAUCCACAUCUACGAAUUCGUUUUUGAUCUGAAAUAUGCAGGGCUGCAGAUCGGAAGAGCACACGU | 20.9 ± 2.45
11 | target 1 insA 3' of 17,insG 3' of 3 (mixed) RNA 1: CACCCGUGCAAAAAUGCAGGGGUCUAAAACUGAGCGGAUAACCUCUCUAUGG RNA 2: GGGAAUGGAUCCACAUCUACGAAUUCGUACCAUAGAAGAGGUUAUCCGCUGCACCGAGAUCGGAAGAGCACACGU | 10.9 ± 0.6
12 | target 3 G3C,U21A (mixed) RNA 1: CACCCGUGCAAAAUUGCAGGGGUCUAAAACGACCUGAAUAUUUCAGAUCAAA RNA 2: GGGAAUGGAUCCACAUCUACGAAUUCGUUUAUGAUCUGAAAUAUUCAGCUCUGCAGAUCGGAAGAGCACACGU | 72.5 ± 13.5
13 | target 3 insC 3' of 7,insU 3' of 5 (mixed) RNA 1: CACCCGUGCAAAAUUGCAGGGGUCUAAAACGACCUGAAUAUUUCAGAUCAAA RNA 2: GGGAAUGGAUCCACAUCUACGAAUUCGUUUUUGAUCUGAAAUAUUCCAUGGUCUGCAGAUCGGAAGAGCACACGU | 57 ± 7.5
14 | target 3 insU 3' of 9,insG 3' of 9 (mixed) RNA 1: CACCCGUGCAAAAUUGCAGGGGUCUAAAACGACCUGAAUAUUUCAGAUCAAA RNA 2: GGGAAUGGAUCCACAUCUACGAAUUCGUUUUUGAUCUGAAAUAUGUUCAGGUCUGCAGAUCGGAAGAGCACACGU | 89.5 ± 24.5
15 | target 3 C6G,U7G (mixed) RNA 1: CACCCGUGCAAAAUUGCAGGGGUCUAAAACGACCUGAAUAUUUCAGAUCAAA RNA 2: GGGAAUGGAUCCACAUCUACGAAUUCGUUUUUGAUCUGAAAUAUGGAGGUCUGCAGAUCGGAAGAGCACACGU | 46.5 ± 4.5
16 | target 3 insC 3' of 13,insG 3' of 2 (mixed) RNA 1: CACCCGUGCAAAAUUGCAGGGGUCUAAAACGACCUGAAUAUUUCAGAUCAAA RNA 2: GGGAAUGGAUCCACAUCUACGAAUUCGUUUUUGAUCUGACAAUAUUCAGGUGCUGCAGAUCGGAAGAGCACACGU | 50 ± 11
17 | target 3 insU 3' of 18,insC 3' of 11 (mixed) RNA 1: CACCCGUGCAAAAUUGCAGGGGUCUAAAACGACCUGAAUAUUUCAGAUCAAA RNA 2: GGGAAUGGAUCCACAUCUACGAAUUCGUUUUUGAUUCUGAAACUAUUCAGGUCUGCAGAUCGGAAGAGCACACGU | 49 ± 9
18 | target 3 insA 3' of 7,insC 3' of 4 (mixed) RNA 1: CACCCGUGCAAAAUUGCAGGGGUCUAAAACGACCUGAAUAUUUCAGAUCAAA RNA 2: GGGAAUGGAUCCACAUCUACGAAUUCGUUUUUGAUCUGAAAUAUUACAGCGUCUGCAGAUCGGAAGAGCACACGU | 48.5 ± 8
19 | target 3 insG 3' of 5,insG 3' of 1 (mixed) RNA 1: CACCCGUGCAAAAUUGCAGGGGUCUAAAACGACCUGAAUAUUUCAGAUCAAA RNA 2: GGGAAUGGAUCCACAUCUACGAAUUCGUUUUUGAUCUGAAAUAUUCAGGGUCGUGCAGAUCGGAAGAGCACACGU | 37 ± 9.5
20 | target 3 insA 3' of 6,insC 3' of 3 (mixed) RNA 1: CACCCGUGCAAAAUUGCAGGGGUCUAAAACGACCUGAAUAUUUCAGAUCAAA RNA 2: GGGAAUGGAUCCACAUCUACGAAUUCGUUUUUGAUCUGAAAUAUUCAAGGCUCUGCAGAUCGGAAGAGCACACGU | 7.7 ± 0.6
21 | target 3 C1A,U2A (mixed) RNA 1: CACCCGUGCAAAAUUGCAGGGGUCUAAAACGACCUGAAUAUUUCAGAUCAAA RNA 2: GGGAAUGGAUCCACAUCUACGAAUUCGUUUUUGAUCUGAAAUAUUCAGGAAUGCAGAUCGGAAGAGCACACGU | 49 ± 6.5
22 | target 1 insA 3' of 22,insA 3' of 6 (mixed) RNA 1: CACCCGUGCAAAAAUGCAGGGGUCUAAAACUGAGCGGAUAACCUCUCUAUGG RNA 2: GGGAAUGGAUCCACAUCUACGAAUUCGUACACAUAGAGAGGUUAUCCAGCUCACCGAGAUCGGAAGAGCACACGU | 22.2 ± 1.3
23 | target 3 insC 3' of 9,insG 3' of 7 (mixed) RNA 1: CACCCGUGCAAAAUUGCAGGGGUCUAAAACGACCUGAAUAUUUCAGAUCAAA RNA 2: GGGAAUGGAUCCACAUCUACGAAUUCGUUUUUGAUCUGAAAUACUUGCAGGUCUGCAGAUCGGAAGAGCACACGU | 88 ± 21
24 | target 3 U2C,C6A (mixed) RNA 1: CACCCGUGCAAAAUUGCAGGGGUCUAAAACGACCUGAAUAUUUCAGAUCAAA RNA 2: GGGAAUGGAUCCACAUCUACGAAUUCGUUUUUGAUCUGAAAUAUUAAGGCCUGCAGAUCGGAAGAGCACACGU | 39 ± 7
25 | target 3 insA 3' of 8,insA 3' of 3 (mixed) RNA 1: CACCCGUGCAAAAUUGCAGGGGUCUAAAACGACCUGAAUAUUUCAGAUCAAA RNA 2: GGGAAUGGAUCCACAUCUACGAAUUCGUUUUUGAUCUGAAAUAUAUCAGGAUCUGCAGAUCGGAAGAGCACACGU | 73 ± 18.5
26 | target 3 C1G,U2A (mixed) RNA 1: CACCCGUGCAAAAUUGCAGGGGUCUAAAACGACCUGAAUAUUUCAGAUCAAA RNA 2: GGGAAUGGAUCCACAUCUACGAAUUCGUUUUUGAUCUGAAAUAUUCAGGAGUGCAGAUCGGAAGAGCACACGU | 4.6 ± 0.7
27 | target 3 U7C,U8G (mixed) RNA 1: CACCCGUGCAAAAUUGCAGGGGUCUAAAACGACCUGAAUAUUUCAGAUCAAA RNA 2: GGGAAUGGAUCCACAUCUACGAAUUCGUUUUUGAUCUGAAAUAGCCAGGUCUGCAGAUCGGAAGAGCACACGU | 73.5 ± 12.5
28 | target 3 insU 3' of 22,insU 3' of 3 (mixed) RNA 1: CACCCGUGCAAAAUUGCAGGGGUCUAAAACGACCUGAAUAUUUCAGAUCAAA RNA 2: GGGAAUGGAUCCACAUCUACGAAUUCGUUUUUUGAUCUGAAAUAUUCAGGUUCUGCAGAUCGGAAGAGCACACGU | 27.2 ± 4.15
